Results on seven molecules are retold here after patent US20260035458A1 (Astellas, published 2026).

In assay [1] the target is T1, human CLDN9 (human, UniProt O95484 1-217).
T1 construct: whole, on cells; Transiently expressed on HEK293 cells
T1 sequence (looked up): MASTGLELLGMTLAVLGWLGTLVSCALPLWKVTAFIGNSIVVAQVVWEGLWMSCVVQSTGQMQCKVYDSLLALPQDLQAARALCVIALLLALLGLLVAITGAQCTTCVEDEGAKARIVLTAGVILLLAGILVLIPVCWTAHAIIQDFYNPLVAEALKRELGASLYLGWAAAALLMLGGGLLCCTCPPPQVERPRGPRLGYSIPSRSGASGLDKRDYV
Briefly: flow cytometry on HEK293 cells transiently transfected with human CLDN9, AF647 secondary antibody.

Assay [2] deals with T2, human CLDN18.2 (human).
T2 construct: also called claudin 18 splice variant 2
In words: flow cytometry on HEK293 cells transiently transfected with human CLDN18.2 (column hCLDN18.2 EC50 (nM)). (Flow cytometry measures light scatter and fluorescence of single cells or particles in a stream.)
Protocol: Therefore, the anti-CLDN18.2× anti-CD3 bsAbs were investigated for their binding to human CLDN18.2, cynomolgus CLDN18.2, and murine CLDN18.2. HEK293 cells were transiently transfected to express human, cynomolgus, or mouse CLDN18.2. 48 hours post transfection, cells were mixed with indicated concentrations of the bsAbs and incubated for 1 hour at 4° C. Cells were washed and then stained with a secondary Ab for 1 hour at 4° C. After two more washes, cells were analyzed on an Attune flow cytometer.

In assay [3] the target is T2, human CLDN18.2. In words: flow cytometry on SNU-601 (2E4) cells (enriched for CLDN18.2), Alexa Fluor 647 anti-human IgG Fcγ secondary.
Description: Control samples included bsAbs having murine CLDN18.2 ABDs, bivalent anti-CLDN18.2 mAbs, cells only, and secondary antibody only.

B1: XENP24644 (antibody, V domains shown)
VH: QVQLQQPGAELVRPGASVKLSCKASGYTFTSYWINWVKQRPGQGLEWIGNIYPSDSYTNYNQKFKDKATLTVDKSSSTAYMQLSSPTSEDSAVYYCTRSWRGNSFDYWGQGTTLTVSS
VL: DIVMTQSPSSLTVTAGEKVTMSCKSSQSLLNSGNQKNYLTWYQQKPGQPPKLLIYWASTRESGVPDRFTGSGSGTDFTLTISSVQAEDLAVYYCQNDYSYPFTFGSGTKLEIK
notes: also called H0L0 CLDN18.2; bivalent mAb
What is called EC50 is the concentration at which the effect is half-maximal. Read a low EC50 as higher potency in that assay. As a reminder, the EC50 (read off the curve) is the midpoint of the concentration-response curve. High values mean lower potency in that assay, low ones higher potency in that assay. Regarding B1, the binding result in assay [1] is recorded as “no binding (tested: 30000 ng/ml)”. Besides, in assay [2], a half-maximal response (EC50) required 4 nM. For the same molecule, in assay [3], the half-maximal effective concentration (EC50 (read off the curve)) was ~0.4 mg/L.

B2: XENP29470 (antibody, V domains shown)
VH: EVQLVQSGAEVKKPGESLRISCKASGYTFTSYWINWVRQMPGKGLEWMGNIYPSDSYTNYNQKFQGHVTISVDKSISTAYLQWSSLKASDTAMYYCTRSWRGNSFDYWGQGTLVTVSS
VL: DIVMTQSPDSLAVSLGERATINCKSSQSLLNSGNQKNYLTWYQQKPGQPPKLLIYWASTRESGVPDRFTGSGSGTDFTLTISSLQAEDVAVYYCQNDYSYPFTFGSGTKLEIK
notes: also called H1L1 CLDN18.2 (printed H1LI); bivalent mAb
Turning to B2, in assay [3], the “EC50 (read off the curve)” value is ~0.5 mg/L.

B3: XENP29471 (antibody, V domains shown)
VH: QVQLVQSGAEVKKPGASVKVSCKASGYTFTSYWINWVRQAPGQGLEWMGNIYPSDSYTNYNQKFQGRVTMTVDKSTSTAYMELSSLRSEDTAVYYCTRSWRGNSFDYWGQGTLVTVSS
VL: DIVMTQSPDSLAVSLGERATINCKSSQSLLNSGNQKNYLTWYQQKPGQPPKLLIYWASTRESGVPDRFTGSGSGTDFTLTISSLQAEDVAVYYCQNDYSYPFTFGSGTKLEIK
notes: also called H2L1 CLDN18.2; bivalent mAb
Take B3: the “EC50 (read off the curve)” value in assay [3] was ~0.9 mg/L.

B4: XENP24647 (bispecific antibody)
heavy: QVQLQQPGAELVRPGASVKLSCKASGYTFTSYWINWVKQRPGQGLEWIGNIYPSDSYTNYNQKFKDKATLTVDKSSSTAYMQLSSPTSEDSAVYYCTRSWRGNSFDYWGQGTTLTVSSASTKGPSVFPLAPSSKSTSGGTAALGCLVKDYFPEPVTVSWNSGALTSGVHTFPAVLQSSGLYSLSSVVTVPSSSLGTQTYICNVNHKPSDTKVDKKVEPKSCDKTHTCPPCPAPPVAGPSVFLFPPKPKDTLMISRTPEVTCVVVDVKHEDPEVKFNWYVDGVEVHNAKTKPREEEYNSTYRVVSVLTVLHQDWLNGKEYKCKVSNKALPAPIEKTISKAKGQPREPQVYTLPPSREEMTKNQVSLTCDVSGFYPSDIAVEWESDGQPENNYKTTPPVLDSDGSFFLYSKLTVDKSRWEQGDVFSCSVMHEALHNHYTQKSLSLSPGK
chain: QVQLQQPGAELVRPGASVKLSCKASGYTFTSYWINWVKQRPGQGLEWIGNIYPSDSYTNYNQKFKDKATLTVDKSSSTAYMQLSSPTSEDSAVYYCTRSWRGNSFDYWGQGTTLTVSSASTKGPSVFPLAPSSKSTSGGTAALGCLVKDYFPEPVTVSWNSGALTSGVHTFPAVLQSSGLYSLSSVVTVPSSSLGTQTYICNVNHKPSNTKVDKKVEPKSCGGGGSGGGGSEVQLVESGGGLVQPGGSLRLSCAASGFTFSTYAMNWVRQAPGKGLEWVGRIRSKYNNYATYYADSVKGRFTISRDDSKNTLYLQMNSLRAEDTAVYYCVRHGNFGDSYVSWFAYWGQGTLVTVSSGKPGSGKPGSGKPGSGKPGSQAVVTQEPSLTVSPGGTVTLTCGSSTGAVTTSNYANWVQQKPGKSPRGLIGGTNKRAPGVPARFSGSLLGGKAALTISGAQPEDEADYYCALWYSNHWVFGGGTKLTVLGGGGSGGGGSKTHTCPPCPAPPVAGPSVFLFPPKPKDTLMISRTPEVTCVVVDVKHEDPEVKFNWYVDGVEVHNAKTKPREEQYNSTYRVVSVLTVLHQDWLNGKEYKCKVSNKALPAPIEKTISKAKGQPREPQVYTLPPSREQMTKNQVKLTCLVKGFYPSDIAVEWESNGQPENNYKTTPPVLDSDGSFFLYSKLTVDKSRWQQGNVFSCSVMHEALHNHYTQKSLSLSPGK
light: DIVMTQSPSSLTVTAGEKVTMSCKSSQSLLNSGNQKNYLTWYQQKPGQPPKLLIYWASTRESGVPDRFTGSGSGTDFTLTISSVQAEDLAVYYCQNDYSYPFTFGSGTKLEIKRTVAAPSVFIFPPSDEQLKSGTASVVCLLNNFYPREAKVQWKVDNALQSGNSQESVTEQDSKDSTYSLSSTLTLSKADYEKHKVYACEVTHQGLSSPVTKSFNRGEC
notes: also called anti-CLDN18.2× anti-CD3 bsAb; Fab2-scFv
Turning to B4, in assay [1], the binding result was “no binding (tested: 30000 ng/ml)”. The molecule further displayed an EC50 in assay [2] of 4 nM. The “EC50 (read off the curve)” value in assay [3] was ~0.6 mg/L.

B5: XENP24645 (bispecific antibody)
heavy: QVQLQQPGAELVRPGASVKLSCKASGYTFTSYWINWVKQRPGQGLEWIGNIYPSDSYTNYNQKFKDKATLTVDKSSSTAYMQLSSPTSEDSAVYYCTRSWRGNSFDYWGQGTTLTVSSASTKGPSVFPLAPSSKSTSGGTAALGCLVKDYFPEPVTVSWNSGALTSGVHTFPAVLQSSGLYSLSSVVTVPSSSLGTQTYICNVNHKPSDTKVDKKVEPKSCDKTHTCPPCPAPPVAGPSVFLFPPKPKDTLMISRTPEVTCVVVDVKHEDPEVKFNWYVDGVEVHNAKTKPREEEYNSTYRVVSVLTVLHQDWLNGKEYKCKVSNKALPAPIEKTISKAKGQPREPQVYTLPPSREEMTKNQVSLTCDVSGFYPSDIAVEWESDGQPENNYKTTPPVLDSDGSFFLYSKLTVDKSRWEQGDVFSCSVMHEALHNHYTQKSLSLSPGK
chain: not shown
light: DIVMTQSPSSLTVTAGEKVTMSCKSSQSLLNSGNQKNYLTWYQQKPGQPPKLLIYWASTRESGVPDRFTGSGSGTDFTLTISSVQAEDLAVYYCQNDYSYPFTFGSGTKLEIKRTVAAPSVFIFPPSDEQLKSGTASVVCLLNNFYPREAKVQWKVDNALQSGNSQESVTEQDSKDSTYSLSSTLTLSKADYEKHKVYACEVTHQGLSSPVTKSFNRGEC
notes: expressed in HEK293E cells; also called anti-CLDN18.2× anti-CD3 bsAb; Fab-scFv
Consider B5, for which the binding result in assay [1] was “no binding (tested: 30000 ng/ml)”. Besides, the response in assay [2] was half-maximal at 145 nM (EC50).

B6: XENP29476 (bispecific antibody)
heavy: EVQLVQSGAEVKKPGESLRISCKASGYTFTSYWINWVRQMPGKGLEWMGNIYPSDSYTNYNQKFQGHVTISVDKSISTAYLQWSSLKASDTAMYYCTRSWRGNSFDYWGQGTLVTVSSASTKGPSVFPLAPSSKSTSGGTAALGCLVKDYFPEPVTVSWNSGALTSGVHTFPAVLQSSGLYSLSSVVTVPSSSLGTQTYICNVNHKPSDTKVDKKVEPKSCDKTHTCPPCPAPPVAGPSVFLFPPKPKDTLMISRTPEVTCVVVDVKHEDPEVKFNWYVDGVEVHNAKTKPREEEYNSTYRVVSVLTVLHQDWLNGKEYKCKVSNKALPAPIEKTISKAKGQPREPQVYTLPPSREEMTKNQVSLTCDVSGFYPSDIAVEWESDGQPENNYKTTPPVLDSDGSFFLYSKLTVDKSRWEQGDVFSCSVMHEALHNHYTQKSLSLSPGK
chain: EVQLVQSGAEVKKPGESLRISCKASGYTFTSYWINWVRQMPGKGLEWMGNIYPSDSYTNYNQKFQGHVTISVDKSISTAYLQWSSLKASDTAMYYCTRSWRGNSFDYWGQGTLVTVSSASTKGPSVFPLAPSSKSTSGGTAALGCLVKDYFPEPVTVSWNSGALTSGVHTFPAVLQSSGLYSLSSVVTVPSSSLGTQTYICNVNHKPSNTKVDKKVEPKSCGGGGSGGGGSEVQLVESGGGLVQPGGSLRLSCAASGFTFSTYAMNWVRQAPGKGLEWVGRIRSKYNNYATYYADSVKGRFTISRDDSKNTLYLQMNSLRAEDTAVYYCVRHGNFGDSYVSWFAYWGQGTLVTVSSGKPGSGKPGSGKPGSGKPGSQAVVTQEPSLTVSPGGTVTLTCGSSTGAVTTSNYANWVQQKPGKSPRGLIGGTNKRAPGVPARFSGSLLGGKAALTISGAQPEDEADYYCALWYSNHWVFGGGTKLTVLGGGGSGGGGSKTHTCPPCPAPPVAGPSVFLFPPKPKDTLMISRTPEVTCVVVDVKHEDPEVKFNWYVDGVEVHNAKTKPREEQYNSTYRVVSVLTVLHQDWLNGKEYKCKVSNKALPAPIEKTISKAKGQPREPQVYTLPPSREQMTKNQVKLTCLVKGFYPSDIAVEWESNGQPENNYKTTPPVLDSDGSFFLYSKLTVDKSRWQQGNVFSCSVMHEALHNHYTQKSLSLSPGK
light: not shown
notes: as for B4
As to B6, the binding result in assay [1] was “no binding (tested: 30000 ng/ml)”. The molecule also showed an EC50 in assay [2] of 6 nM. Besides, in assay [3], the “EC50 (read off the curve)” value is ~0.5 mg/L.

B7: XENP29472 (bispecific antibody)
heavy: EVQLVQSGAEVKKPGESLRISCKASGYTFTSYWINWVRQMPGKGLEWMGNIYPSDSYTNYNQKFQGHVTISVDKSISTAYLQWSSLKASDTAMYYCTRSWRGNSFDYWGQGTLVTVSSASTKGPSVFPLAPSSKSTSGGTAALGCLVKDYFPEPVTVSWNSGALTSGVHTFPAVLQSSGLYSLSSVVTVPSSSLGTQTYICNVNHKPSDTKVDKKVEPKSCDKTHTCPPCPAPPVAGPSVFLFPPKPKDTLMISRTPEVTCVVVDVKHEDPEVKFNWYVDGVEVHNAKTKPREEEYNSTYRVVSVLTVLHQDWLNGKEYKCKVSNKALPAPIEKTISKAKGQPREPQVYTLPPSREEMTKNQVSLTCDVSGFYPSDIAVEWESDGQPENNYKTTPPVLDSDGSFFLYSKLTVDKSRWEQGDVFSCSVMHEALHNHYTQKSLSLSPGK
chain: not shown
light: not shown
notes: also called anti-CLDN18.2× anti-CD3 bsAb; Fab-scFv
With B7, in assay [1], the binding result is on record as “no binding (tested: 30000 ng/ml)”. The molecule also showed a concentration giving a half-maximal response (EC50) in assay [2] of 146 nM.
